According to patent US20220193237A1 (Bristol-Myers Squibb, published 2022):
Read-outs that look alike come from different tables or passages of the source.

Key:
[1] = target: T1, human CTLA-4 on 58 α-β-CTLA-4/CD3 ζ cells (human; mouse (mCD3ζ)); assay: flow cytometry (GMFI), full-length IgG on 58 α-β-CTLA-4/CD3 ζ cells, pH 6.6
T1 construct: also called 58αβ-hCTLA4/mCD3ζ cells; 58αβ-CTLA4/mCD3ζ cells

[2] = target: T1, human CTLA-4 on 58 α-β-CTLA-4/CD3 ζ …; assay: flow cytometry (GMFI), full-length IgG on 58 α-β-CTLA-4/CD3 ζ cells, pH 6.3
monomeric human CTLA-4 [3] = target: T2, monomeric human CTLA-4 (human, UniProt P16410 36-161, limits assumed); assay: SPR, captured Fab, pH 6.0
T2 construct: Soluble monomeric analyte in SPR; also called huCTLA-4
T2 sequence: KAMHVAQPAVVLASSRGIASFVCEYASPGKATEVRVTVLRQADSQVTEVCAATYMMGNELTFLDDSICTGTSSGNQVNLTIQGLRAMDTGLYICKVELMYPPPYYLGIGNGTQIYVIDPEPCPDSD
Description: (§1) Binding of selected variants to human CTLA-4 was determined essentially as described in Example 3. […] Nomenclature and sequences for these antibodies is provided at Tables 6 and 7, and in the sequence listing as summarized at Table 8.
(§2) Monomeric human CTLA-4 was flowed as analyte with up to 2 μM top concentration. Between cycles, the capture surface was regenerated with 75 mM phosphoric acid. Experiments were run on a BIACORE® T200 instrument at 37° C. Running buffers were HEPES buffered saline for pH 7.4 experiments and Bis-Tris buffered saline for lower pH experiments. […] Double referenced sensorgrams were fitted to a 1:1 Langmuir binding model with mass transport to determine equilibrium dissociation constants (KD), as well as association (kₐ) and dissociation (kd) rate constants where appropriate.

monomeric cyno CTLA-4 [4] = target: T3, monomeric cyno CTLA-4 (cynomolgus macaque (Macaca fascicularis), UniProt G7PL88 36-161); assay: SPR, Fab, monomeric cyno CTLA-4 as analyte; KD (M, log axis 10^-9 to 10^-5) plotted against pH
T3 construct: also called CTLA-4 from the cynomolgus macaque Macaca fascicularis
T3 sequence: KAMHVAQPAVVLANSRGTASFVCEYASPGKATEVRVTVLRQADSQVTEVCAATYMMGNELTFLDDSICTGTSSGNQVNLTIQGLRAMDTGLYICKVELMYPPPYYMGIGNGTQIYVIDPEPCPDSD
Description: (§3) The pH dependence of binding of selected antibodies of the present invention to human CTLA-4 and cyno CTLA-4 was measured by surface plasmon resonance (SPR) spectroscopy, essentially as described in Example 3. Briefly, antibodies were studied as monovalent Fab fragments. Anti-human kappa polyclonal capture antibody (Southern Biotech, Ala. USA) was immobilized on a ethylenediamine-blocked CM4 sensor chip in a Biacore T200 surface plasmon resonance system. Fab fragments of selected antibodies of the present invention were then captured on one flow cell each. […] Running buffer was 20 mM BisTris, 150 mM NaCl, 0.05% Tween-20, 1 g/L BSA, at a pH ranging from 5.5 to 7.4 in 0.1-0.2 pH unit intervals (12 total). The surface was regenerated with 1/200 H₃PO₄ between cycles. […] Where required, the Rₘₐₓ was fixed by calculating expected binding based on capture level and apparent activity from other fits for the same Fab.

monomeric human CTLA-4 [5] = target: T2, monomeric human CTLA-4; assay: SPR, captured Fab, pH 6.0 vs 7.4
Description: as §1, §2

monomeric human CTLA-4 [6] = target: T2, monomeric human CTLA-4; assay: SPR, pH 6.0 and pH 7.5 (FIG. 6)
Description: (§4) Unless otherwise indicated, experiments were performed with a BIACORE® SPR surface plasmon resonance spectrometer (Biacore AB, Uppsala, Sweden). Antibodies were tested as monovalent Fab fragments to simplify analysis.
as §2

monomeric human CTLA-4 [7] = target: T2, monomeric human CTLA-4; assay: SPR, captured Fab, pH 7.4
Description: as §1, §2

monomeric cyno CTLA-4 [8] = target: T3, monomeric cyno CTLA-4; assay: SPR, Fab, monomeric cyno CTLA-4 as analyte; koff (s^-1, linear axis 0 to 0.3) plotted against pH
Description: as §3

[9] = target: T1, human CTLA-4 on 58 α-β-CTLA-4/CD3 ζ …; assay: flow cytometry (APC mean FI), Fab on 58αβ-CTLA4/mCD3ζ cells, pH 6.7
Description: (§5) Antibodies were titrated from 100 μg/mL at a 1:4 dilution across 12 points in pH-specific buffers and incubated for 30-60 minutes. Buffers contained HBSS, 2% FBS^HI, 0.02% sodium azide, 2 mM EDTA, and sodium phosphate buffer (pH 5.4). Sodium phosphate buffer was added until desired pH was reached (7.2, 6.7, 6.2). Approximately 3e5 cells/well were tested for each cell line. […] Detection was done with a monovalent anti-hKappa secondary nanobody conjugated to Alexa647 and used at a dilution of 1:2000. Cells were fixed with BD Fix Solution I for 30 minutes prior to resuspension in pH-specific buffers and reading on the cytometer (BD Fortessa).
(§6) The experimental protocol was the same as used to obtain the data of FIGS. 16A-C.

[10] = target: T1, human CTLA-4 on 58 α-β-CTLA-4/CD3 ζ …; assay: cell-based or functional assay
[11] = target: T1, human CTLA-4 on 58 α-β-CTLA-4/CD3 ζ …; assay: flow cytometry, non-fucosylated IgG1 on 58αβ-CTLA4/mCD3ζ cells, pH 6.7
Description: as §5

[12] = target: T1, human CTLA-4 on 58 α-β-CTLA-4/CD3 ζ …; assay: cell-based or functional assay; remark: listed apart in the source
[13] = target: T1, human CTLA-4 on 58 α-β-CTLA-4/CD3 ζ …; assay: flow cytometry, non-fucosylated IgG1 on 58αβ-CTLA4/mCD3ζ cells, pH 6.2
Description: as §5

[14] = target: T1, human CTLA-4 on 58 α-β-CTLA-4/CD3 ζ …; assay: flow cytometry, non-fucosylated IgG1 on 58αβ-CTLA4/mCD3ζ cells, pH 7.2
Description: as §5

[15] = target: T1, human CTLA-4 on 58 α-β-CTLA-4/CD3 ζ …; assay: cell-based or functional assay; remark: listed apart in the source
monomeric human CTLA-4 [16] = target: T2, monomeric human CTLA-4; assay: SPR, captured Fab, pH 7.4; remark: listed apart in the source
Description: as §4, §2

monomeric human CTLA-4 [17] = target: T2, monomeric human CTLA-4; assay: SPR, captured Fab, pH 6.0; remark: listed apart in the source
Description: as §4, §2

monomeric human CTLA-4 [18] = target: T2, monomeric human CTLA-4; assay: SPR, captured Fab, pH 6.0 vs 7.4; remark: listed apart in the source
Description: as §4, §2

[19] = target: T1, human CTLA-4 on 58 α-β-CTLA-4/CD3 ζ …; assay: flow cytometry (APC mean FI), Fab on 58αβ-CTLA4/mCD3ζ cells, pH 6.2
Description: as §5, §6

B1: ipi.95 (full-length IgG) (antibody, V domains shown)
VH: QVQLVESGGGVVQPGRSLRLSCAASGFTFSHYTMHWVRQAPGKGLEWVTFISYDGHNKYYADSVKGRFTISRDNSKNTLYLQMNSLRAEDTAIYYCARTGWLGPFDYWGQGTLVTVSS
VL: EIVLTQSPGTLSLSPGERATLSCRASQEVGDSELAWYQQKPGQAPRLLIYGAFSRATGIPDRFSGSGSGTDFTLTISRLEPEDFAVYYCQQYGSSPWTFGQGTKVEIKR
notes: Full-length bivalent IgG (human IgG1); heavy chain entry is without the C-terminal lysine
EC50 (read off the curve) [1]: ~1 nM | EC50 (read off the curve) [2]: ~1 nM

B2: ipi.64 Fab (Fab, V domains shown)
VH: QVQLVESGGGVVQPGRSLRLSCAASGFTFSHYTMHWVRQAPGKGLEWVTFISYDGNNKYYADSVKGRFTISRDNSKNTLYLQMNSLRAEDTAIYYCARTGWLGPFDYWGQGTLVTVSS
VL: not shown
notes: Tested as monovalent Fab; also called IPI.64 mutant fab; LCDR1 S28E/S31D and HCDR1 S31H
Kd (monomeric human CTLA-4 [3]): 2.7 nM | kon (monomeric human CTLA-4 [3]): 1.4e+06 M⁻¹ s⁻¹ | t1/2 (monomeric human CTLA-4 [3]): 3.03 min | binding result (monomeric cyno CTLA-4 [4]): binds | KD 7.4/6 (APBP) (monomeric human CTLA-4 [5]): 13 | ka 6/7.4 (monomeric human CTLA-4 [5]): 1.8 | t1/2 6/7.4 (monomeric human CTLA-4 [5]): 7.6 | CAPBP (ratio of KD normalized to ipilimumab) (monomeric human CTLA-4 [6]): 27.2 | Kd (monomeric human CTLA-4 [7]): 37 nM | kon (monomeric human CTLA-4 [7]): 780000 M⁻¹ s⁻¹ | t1/2 (monomeric human CTLA-4 [7]): 0.417 min

B3: ipi.106 Fab (Fab, V domains shown)
VH: QVQLVESGGGVVQPGRSLRLSCAASGFTFSHYTMHWVRQAPGKGLEWVTFISYDGHNKYYADSVKGRFTISRDNSKNTLYLQMNSLRAEDTAIYYCARHGWLGPFDYWGQGTLVTVSS
VL: EIVLTQSPGTLSLSPGERATLSCRASQEVGESELAWYQQKPGQAPRLLIYGAFSRATGIPDRFSGSGSGTDFTLTISRLEPEDFAVYYCQQYGSSPWTFGQGTKVEIKR
notes: Tested as monovalent Fab
Kd (monomeric human CTLA-4 [3]): 18 nM | kon (monomeric human CTLA-4 [3]): 1.2e+06 M⁻¹ s⁻¹ | t1/2 (monomeric human CTLA-4 [3]): 0.55 min | KD 7.4/6 (APBP) (monomeric human CTLA-4 [5]): > 20 | Kd (monomeric human CTLA-4 [7]): > 350 nM | binding result (monomeric cyno CTLA-4 [8]): binds | EC50 (read off the curve) [9]: ~3 µg/mL

B4: ipi.100, non-fucosylated IgG1 (antibody, V domains shown)
VH: QVQLVESGGGVVQPGRSLRLSCAASGFTFSHYTMHWVRQAPGKGLEWVTFISYDGNNKYYADSVKGRFTISRDNSKNTLYLQMNSLRAEDTAIYYCARTGWLGPFDYWGQGTLVTVSS
VL: not shown
modifications: non-fucosylated N-linked glycan
notes: Non-fucosylated full-length human IgG1; also called Ipi.100 IgG1-NF
IC50 (read off the curve), mIL-2 secretion, 58αβ-hCTLA/mCD3ζ:rhB7-1 blocking assay, 18 h, pH 7.0 [10]: ~1 nM | Cmax (MFI) [11]: 126000 MFI | EC50 [11]: 2.85 nM | IC50 (read off the curve), mIL-2 secretion, 58αβ-hCTLA/mCD3ζ:rhB7-1 blocking assay, 18 h, pH 6.8 [12]: ~1 nM | Cmax (MFI) [13]: 122000 MFI | EC50 [13]: 2.94 nM | Cmax (MFI) [14]: 125000 MFI | EC50 [14]: 2.8 nM | IC50 (read off the curve), mIL-2 secretion, 58αβ-hCTLA/mCD3ζ:rhB7-1 blocking assay, 18 h, pH 7.2 [15]: ~1 nM

B5: ipi.2 Fab (Fab, V domains shown)
VH: QVQLVESGGGVVQPGRSLRLSCAASGFTFSSYTMHWVRQAPGKGLEWVTFISYDGNHKYYADSVKGRFTISRDNSKNTLYLQMNSLRAEDTAIYYCARTGWLGPFDYWGQGTLVTVSS
VL: not shown
notes: Tested as monovalent Fab; also called N56H (Kabat)
Kd (monomeric human CTLA-4 [16]): 16 nM | koff (monomeric human CTLA-4 [16]): 0.011 s⁻¹ | kon (monomeric human CTLA-4 [16]): 670000 M⁻¹ s⁻¹ | Kd (monomeric human CTLA-4 [3]): 6.8 nM | kon (monomeric human CTLA-4 [3]): 1.2e+06 M⁻¹ s⁻¹ | t1/2 (monomeric human CTLA-4 [3]): 1.38 min | Kd (monomeric human CTLA-4 [17]): 13 nM | koff (monomeric human CTLA-4 [17]): 0.0065 s⁻¹ | kon (monomeric human CTLA-4 [17]): 490000 M⁻¹ s⁻¹ | KD 7.4/6 (APBP) (monomeric human CTLA-4 [5]): 0.9 | ka 6/7.4 (monomeric human CTLA-4 [5]): 1.4 | t1/2 6/7.4 (monomeric human CTLA-4 [5]): 0.6 | Kd (monomeric human CTLA-4 [7]): 5.8 nM | kon (monomeric human CTLA-4 [7]): 880000 M⁻¹ s⁻¹ | t1/2 (monomeric human CTLA-4 [7]): 2.27 min | KD 7.4/6 (APBP) (monomeric human CTLA-4 [18]): 0.8

B6: ipi.101, non-fucosylated IgG1 (antibody, V domains shown)
VH: QVQLVESGGGVVQPGRSLRLSCAASGFTFSHYTMHWVRQAPGKGLEWVTFISYDGHNKYYADSVKGRFTISRDNSKNTLYLQMNSLRAEDTAIYYCARTGWLGPFDYWGQGTLVTVSS
VL: not shown
modifications: non-fucosylated N-linked glycan
notes: Non-fucosylated full-length human IgG1; also called Ipi.101 IgG1-NF
IC50 (read off the curve), mIL-2 secretion, 58αβ-hCTLA/mCD3ζ:rhB7-1 blocking assay, 18 h, pH 7.0 [10]: ~1 nM | Cmax (MFI) [11]: 126000 MFI | EC50 [11]: 4.06 nM | IC50 (read off the curve), mIL-2 secretion, 58αβ-hCTLA/mCD3ζ:rhB7-1 blocking assay, 18 h, pH 6.8 [12]: ~0.7 nM | Cmax (MFI) [13]: 121000 MFI | EC50 [13]: 3.52 nM | Cmax (MFI) [14]: 124000 MFI | EC50 [14]: 3.81 nM | IC50 (read off the curve), mIL-2 secretion, 58αβ-hCTLA/mCD3ζ:rhB7-1 blocking assay, 18 h, pH 7.2 [15]: ~1 nM

B7: ipi.100 Fab (Fab, V domains shown)
VH: QVQLVESGGGVVQPGRSLRLSCAASGFTFSHYTMHWVRQAPGKGLEWVTFISYDGNNKYYADSVKGRFTISRDNSKNTLYLQMNSLRAEDTAIYYCARTGWLGPFDYWGQGTLVTVSS
VL: not shown
notes: Tested as monovalent Fab
Kd (monomeric human CTLA-4 [3]): 2.5 nM | kon (monomeric human CTLA-4 [3]): 940000 M⁻¹ s⁻¹ | t1/2 (monomeric human CTLA-4 [3]): 4.82 min | EC50 (read off the curve) [19]: ~0.1 µg/mL | binding result (monomeric cyno CTLA-4 [4]): binds | KD 7.4/6 (APBP) (monomeric human CTLA-4 [5]): 17 | ka 6/7.4 (monomeric human CTLA-4 [5]): 2.1 | t1/2 6/7.4 (monomeric human CTLA-4 [5]): 8.8 | Kd (monomeric human CTLA-4 [7]): 46 nM | kon (monomeric human CTLA-4 [7]): 460000 M⁻¹ s⁻¹ | t1/2 (monomeric human CTLA-4 [7]): 0.55 min
